Molecular target: Fc receptor on monocytes of human PBMC effector cells (human)
Test: cell-based or functional assay

Which maximal ADCC activity on KIT225/K6 cells, against ZENAPAX DAC and DAC Penzberg does the source give for “DAC HYP (daclizumab, humanized IgG1 anti-CD25 monoclonal antibody made by the high yield process in NS0 cells)” here?
The maximal ADCC activity on KIT225/K6 cells, against ZENAPAX DAC and DAC Penzberg was 30 to 40 % lower.
